From publication PMC8998196, “A Second Gamma-Glutamylpolyamine Synthetase, GlnA2, Is Involved in Polyamine Catabolism in Streptomyces coelicolor” (International Journal of Molecular Sciences, 2022)

Assays:
GlnA3 (His-GlnA3) = target: T1, GlnA3 (His-GlnA3) (Streptomyces coelicolor, UniProt Q9KZC7); assay: phosphate release (molybdate) modified GS assay; type: biochemical; conditions: 50 mM substrate, 10 µg enzyme, co-substrates glutamate and ATP, 30 °C, 5 min
T1 construct: His-tagged GlnA3
T1 sequence (Q9KZC7 1-466): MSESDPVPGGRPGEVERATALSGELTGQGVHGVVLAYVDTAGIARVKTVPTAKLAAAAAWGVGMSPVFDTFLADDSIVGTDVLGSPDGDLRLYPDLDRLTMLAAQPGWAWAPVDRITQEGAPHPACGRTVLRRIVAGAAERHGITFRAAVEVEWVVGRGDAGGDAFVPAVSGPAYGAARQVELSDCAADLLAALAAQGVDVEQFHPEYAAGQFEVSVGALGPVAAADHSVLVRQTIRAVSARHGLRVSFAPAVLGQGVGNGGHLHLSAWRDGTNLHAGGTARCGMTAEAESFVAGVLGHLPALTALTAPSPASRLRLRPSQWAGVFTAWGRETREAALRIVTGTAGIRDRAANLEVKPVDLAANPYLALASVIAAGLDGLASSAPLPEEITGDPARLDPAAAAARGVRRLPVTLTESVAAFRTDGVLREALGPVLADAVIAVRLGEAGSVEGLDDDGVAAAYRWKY

[1] = substrate: NCCCCN; assay: phosphate release (molybdate) modified GS assay, Michaelis-Menten fit; type: biochemical, Streptomyces coelicolor; conditions: co-substrates glutamate and ATP, Mg2+, 30 °C, 5 min
[2] = substrate: Nc1ncnc2c1ncn2[C@@H]1O[C@H](COP(=O)(O)OP(=O)(O)OP(=O)(O)O)[C@@H](O)[C@H]1O; assay: as above; type: biochemical, Streptomyces coelicolor; conditions: polyamine and glutamate as co-substrates, Mg2+, 30 °C, 5 min
[3] = substrate: N[C@@H](CCC(=O)O)C(=O)O; assay: as above; type: biochemical, Streptomyces coelicolor; conditions: polyamine and ATP as co-substrates, Mg2+, 30 °C, 5 min, L form not given

NCCCNCCCCNCCCN [spermine]
phosphate release (molybdate) modified GS assay (GlnA3 (His-GlnA3)): GlnA3 demonstrated a significant specificity towards spermidine and spermine, compared with GlnA2

NCCCCNCCCN [spermidine]
phosphate release (molybdate) modified GS assay (GlnA3 (His-GlnA3)): GlnA3 demonstrated a significant specificity towards spermidine and spermine, compared with GlnA2

B1: GlnA2 (His-GlnA2) (Streptomyces coelicolor A3(2)) (protein)
chain: MDKQQEFVIRTLEERDIRFVRLWFTDVLGFLKSVAVAPAELEQAFDEGIGFDGSAIEGFARVYESDMIAKPDPSTFQVLPWRAEAPGTARMFCDILMPDGSPSFADPRYVLKRALARTSDLGFTFYTHPEIEFFLLKDKPVDGSVPTPADNSGYFDHTPQNIGMDFRRQAITMLESMGISVEFSHHEGAPGQQEIDLRYADALSTADNVMTFRLVMKQVALEQGLQATFMPKPFSEYPGSGMHTHLSLFEGDRNAFYESGAEYQLSKVGRSFIAGLLRHAAEISAVTNQWVNSYKRIWGGTERTAGAGGEAPSYICWGHNNRSALVRVPMYKPGKTGSARVEVRSIDSGANPYLTYAVLLAAGLKGIEEGYELPPGAEDDVWALSDAERRALGIEPLPQNLGEALALMERSDLVAETLGEHVFDFFLRNKRQEWEEYRSQVTAFELRKSLPVL
notes: dodecamer only modelled
Km [1]: 550 ± 100 µM
Km [2]: 130 ± 100 µM
Km [3]: 1060 ± 200 µM
